T1: SALL4 ZFC4 WT (Mus musculus, UniProt Q8BX22 870-940)
T1 sequence: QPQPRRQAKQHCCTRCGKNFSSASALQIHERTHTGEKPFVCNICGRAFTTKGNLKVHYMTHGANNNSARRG

T2: SALL4 ZFC4 I897S+V925S (Mus musculus, UniProt Q8BX22 870-940, I897S;V925S)
T2 sequence: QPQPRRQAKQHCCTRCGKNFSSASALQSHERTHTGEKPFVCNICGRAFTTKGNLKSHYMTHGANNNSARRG

T3: SALL4 ZFC4 I897S (Mus musculus, UniProt Q8BX22 870-940, I897S)
T3 sequence: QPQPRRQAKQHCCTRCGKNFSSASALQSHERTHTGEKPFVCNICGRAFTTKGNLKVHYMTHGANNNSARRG

T4: SALL4 ZFC4 R900W (Mus musculus, UniProt Q8BX22 870-940, R900W)
T4 sequence: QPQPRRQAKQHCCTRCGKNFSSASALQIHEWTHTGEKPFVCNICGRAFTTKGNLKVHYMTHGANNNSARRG


How the values were obtained:
SALL4 ZFC4 WT [1] = biological target: T1, SALL4 ZFC4 WT; experiment: X-ray crystallography 2.76 A; Zn2+; 4 ZFC4 and 4 dsDNA per asymmetric unit, unevenly distributed; 50 mM MES pH 6.0, 20% PEG 3350, 60 mM MgCl2; EMSA: 68.1 nM DY681-dsDNA, 20 mM HEPES pH 7.5, 150 mM K acetate, 5 mM Mg acetate, 10 ng/ul poly(dI-dC), 30 min on ice; 4% native PAGE, 0.5x TBE, 4 C; conditions: protein: recombinant; tags: His6-GST removed with 3C protease; GPDS scar at N-terminus; blunt; self-complementary, 2 copies of strand
SALL4 ZFC4 WT [2] = biological target: T1, SALL4 ZFC4 WT; experiment: EMSA; apparent; major groove mutant dataset; poly(dI-dC); EMSA: 68.1 nM DY681-dsDNA, 20 mM HEPES pH 7.5, 150 mM K acetate, 5 mM Mg acetate, 10 ng/ul poly(dI-dC), 30 min on ice; 4% native PAGE, 0.5x TBE, 4 C; conditions: protein: recombinant; tags: His6-GST removed with 3C protease; GPDS scar at N-terminus; label: DY681
SALL4 ZFC4 I897S+V925S = biological target: T2, SALL4 ZFC4 I897S+V925S; experiment: EMSA; EMSA: 20 mM HEPES pH 7.5, 150 mM K acetate, 5 mM Mg acetate, 10 ng/ul poly(dI-dC), 68.1 nM DNA, on ice 30 min, gel at 4 C. HT-SELEX: 10 mM Tris-HCl pH 7.5, 50 m; conditions: protein: recombinant; tags: His6-GST removed with 3C protease; label: DY681
SALL4 ZFC4 WT [3] = biological target: T1, SALL4 ZFC4 WT; experiment: as above; conditions: protein: recombinant; tags: His6-GST removed with 3C protease; GPDS scar at N-terminus; label: DY681
SALL4 ZFC4 I897S = biological target: T3, SALL4 ZFC4 I897S; experiment: as above; conditions: protein: recombinant; tags: His6-GST removed with 3C protease; label: DY681
SALL4 ZFC4 R900W = biological target: T4, SALL4 ZFC4 R900W; experiment: as above; conditions: protein: recombinant; tags: His6-GST removed with 3C protease; label: DY681
SALL4 ZFC4 WT [4] = biological target: T1, SALL4 ZFC4 WT; experiment: EMSA; apparent; patient mutation dataset; poly(dI-dC); EMSA: 68.1 nM DY681-dsDNA, 20 mM HEPES pH 7.5, 150 mM K acetate, 5 mM Mg acetate, 10 ng/ul poly(dI-dC), 30 min on ice; 4% native PAGE, 0.5x TBE, 4 C; conditions: protein: recombinant; tags: His6-GST removed with 3C protease; GPDS scar at N-terminus; label: DY681

Binder	binding result (SALL4 ZFC4 WT [1])	Kd (SALL4 ZFC4 WT [2]) [nM]	Kd (SALL4 ZFC4 I897S+V925S) [nM]	Kd (SALL4 ZFC4 WT [3]) [nM]	Kd (SALL4 ZFC4 I897S) [nM]	Kd (SALL4 ZFC4 R900W) [nM]	Kd (SALL4 ZFC4 WT [4]) [nM]
palindromic AT-rich crystallisation DNA (dsDNA) DNA 1: GATATTAATATC DNA 2: GATATTAATATC	binds						
EMSA AT-rich probe (dsDNA) DNA 1: AAAAAATATTAAAAA DNA 2: TTTTTAATATTTTTT		760	5100	615 ± 205	4800	23000	472

From paper PMC9838217, “Structure of SALL4 zinc finger domain reveals link between AT-rich DNA binding and Okihiro syndrome”
